# Test results from the supplement of paper PMC10567573.
# B1: FAM46D (parent)
# chain: FQEAMTHLQHKLICTRKPEEIRGG
# Variants of: B1
# Experiment: protein stability index of a GFP-peptide fusion (GPS, HEK-293T) (PSI 1-6); higher = more stable
# Details: c terminus: a fixed tail appended
# 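Note: lentivirally expressed fusions sorted by FACS into six bins by GFP to DsRed ratio, PSI derived from sequencing read proportions per bin multiplied by bin number.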
row,Variant,protein stability index
1,FQEAMTHLQHSLICTRKPEEIRGG,3.15
2,FQEAMTHLQHHLICTRKPEEIRGG,2.44
3,FQEAMTHLQHALICTRKPEEIRGG,2.54
4,FQEAMTHLQHMLICTRKPEEIRGG,1.57
5,FQEAMTHLQHELICTRKPEEIRGG,3.88
6,FQEAMTHLQHQLICTRKPEEIRGG,2.41
7,FQEAMTHLQHPLICTRKPEEIRGG,2.44
8,FQEAMTHLQHDLICTRKPEEIRGG,2.88
9,FQEAMTHLQHKLICTRKPREIRGG,1.42
10,FQEAMTHLQHKLICTRKPLEIRGG,2.26
11,FQEAMTHLQHKLICTRKPTEIRGG,2.28
12,FQEAMTHLQHKLICTRKPQEIRGG,2.23
13,FQEAMTHLQHKLICTRKPFEIRGG,2.09
14,FQEAMTHLQHKLICTRKPMEIRGG,1.58
15,FQEAMTHLQHKLICTRKPNEIRGG,2.53
16,FQEAMTHLQHKLICTRKPEEIRGY,2.59
17,FQEAMTHLQHKLICTRKPEEIRGE,2.49
18,FQEAMTHLQHKLICTRKPEEIRGL,2.45
19,FQEAMTHLQHKLICTRKPEEIRGD,2.96
20,FQEAMTHLQHKLICTRKPEEIRGR,2.07
21,FQEAMTHLQHKLICTRKPEEIRGI,1.91
22,FQEAMTHLQHKLICTRKPEEIRGT,2.96
23,FQEAMTHLQHKLICTRKPEEIRGA,2.26
24,FQEAMTHLQHKLICTRKPEEIRGQ,2.91

row,Variant,protein stability index
1,FQEAMTHLQHKLICTRAPEEIRGG,2.58
2,FQEAMTHLQHKLICTRFPEEIRGG,2.03
3,FQEAMTHLQHKLICTRNPEEIRGG,2.9
4,FQEAMTHLQHKLICTRPPEEIRGG,2.52
5,FQEAMTHLQHKLICTRRPEEIRGG,2.02
6,FQEAMTHLQHKLICTRTPEEIRGG,2.65
7,FQEAMTHLQHKLICTREPEEIRGG,3.03
8,FQEAMTHTQHKLICTRKPEEIRGG,3.35
9,FQEAMTHEQHKLICTRKPEEIRGG,3.69
10,FQEAMTHAQHKLICTRKPEEIRGG,3.91
11,FQEAMTHDQHKLICTRKPEEIRGG,4.31
12,FQEAMTHHQHKLICTRKPEEIRGG,3.57
13,FQEAMTHVQHKLICTRKPEEIRGG,2.07
14,FQEAMTHNQHKLICTRKPEEIRGG,3.76
15,FQEAMTHIQHKLICTRKPEEIRGG,2.88
16,FQEAMTHLQHKLICTQKPEEIRGG,3.16
17,FQEAMTHLQHKLICTKKPEEIRGG,2.09
18,FQEAMTHLQHKLICTTKPEEIRGG,2.56
19,FQEAMTHLQHKLICTAKPEEIRGG,3.35
20,FQEAMTHLQHKLICTPKPEEIRGG,2.87
21,FQEAMTHLQHKLICTEKPEEIRGG,2.57
22,FQEAMTHLQHKLICTCKPEEIRGG,1.84
23,FQEAMTHLQHKLLCTRKPEEIRGG,2.13
24,FQEAMTHLQHKLDCTRKPEEIRGG,2.57

row,Variant,protein stability index
1,FQEAMTHLQHKLNCTRKPEEIRGG,3.33
2,FQEAMTHLQHKLQCTRKPEEIRGG,3.58
3,FQEAMTHLQHKLECTRKPEEIRGG,3.67
4,FQEAMTHLQHKLSCTRKPEEIRGG,2.94
5,FQEHMTHLQHKLICTRKPEEIRGG,2.95
6,FQETMTHLQHKLICTRKPEEIRGG,3.29
7,FQEKMTHLQHKLICTRKPEEIRGG,3.51
8,FQEPMTHLQHKLICTRKPEEIRGG,2.62
9,FQESMTHLQHKLICTRKPEEIRGG,2.99
10,FQEYMTHLQHKLICTRKPEEIRGG,2
11,FQECMTHLQHKLICTRKPEEIRGG,2.61
12,FQEIMTHLQHKLICTRKPEEIRGG,2.42
13,FQEEMTHLQHKLICTRKPEEIRGG,3.28
14,FQEVMTHLQHKLICTRKPEEIRGG,2.63
15,FQEAMTHLQHKLICTRKPETIRGG,2.5
16,FQEAMTHLQHKLICTRKPEIIRGG,1.77
17,FQEAMTHLQHKLICTRKPELIRGG,2.05
18,FQEAMTHLQHKLICTRKPEGIRGG,1.99
19,FQEAMTHLQHKLICTRKPEHIRGG,1.89
20,FQEAMTHLQHKLICTRKPEMIRGG,2.03
21,FQEAMTHLQHKLICTRKPEYIRGG,2.34
22,FQEAMTHLQHKLICTRKPEWIRGG,2.08
23,FQEAMTHLQHKLICTRKPEEIRDG,3.08
24,FQEAMTHLQHKLICTRKPEEIRTG,2.14

row,Variant,protein stability index
1,FQEAMTHLQHKLICTRKPEEIRYG,2.41
2,FQEAMTHLQHKLICTRKPEEIRWG,2.48
3,FQEAMTHLQHKLICTRKPEEIRVG,2.15
4,FQEAMHHLQHKLICTRKPEEIRGG,2.22
5,FQEAMIHLQHKLICTRKPEEIRGG,2.15
6,FQEAMEHLQHKLICTRKPEEIRGG,3.38
7,FQEAMMHLQHKLICTRKPEEIRGG,1.66
8,FQEAMPHLQHKLICTRKPEEIRGG,3.04
9,FQEAMSHLQHKLICTRKPEEIRGG,3.2
10,FQEAMFHLQHKLICTRKPEEIRGG,2.11
11,FQEAMAHLQHKLICTRKPEEIRGG,2
12,FQEAMYHLQHKLICTRKPEEIRGG,1.54
13,FQEAMTHLQHKLICTRKREEIRGG,2.09
14,FQEAMTHLQHKLICTRKHEEIRGG,2.33
15,FQEAMTHLQHKLICTRKDEEIRGG,2.7
16,FQEAMTHLQHKLICTRKCEEIRGG,1.3
17,FQEAMTHLQHKLICTRKNEEIRGG,3.04
18,FQEAMTHLQHKLICTRKMEEIRGG,2.24
19,FQEAMTHLQHKLICTRKSEEIRGG,2.43
20,FQEAMTHLQHKLICTRKKEEIRGG,1.82
21,FQEAMTHLMHKLICTRKPEEIRGG,2.21
22,FQEAMTHLYHKLICTRKPEEIRGG,2.3
23,FQEAMTHLFHKLICTRKPEEIRGG,2.61
24,FQEAMTHLWHKLICTRKPEEIRGG,1.16

row,Variant,protein stability index
1,FQEAMTHLCHKLICTRKPEEIRGG,1.89
2,FQEAMTHLTHKLICTRKPEEIRGG,2.6
3,FQEAMTHLGHKLICTRKPEEIRGG,2.09
4,FQEAMTHLAHKLICTRKPEEIRGG,2.25
5,FQEAMTHLQHKLICMRKPEEIRGG,3.17
6,FQEAMTHLQHKLICGRKPEEIRGG,3.56
7,FQEAMTHLQHKLICNRKPEEIRGG,2.79
8,FQEAMTHLQHKLICLRKPEEIRGG,1.77
9,FQEAMTHLQHKLICCRKPEEIRGG,2.42
10,FQEAMTHLQHKLICVRKPEEIRGG,2.94
11,FQEAMTHLQHKLICDRKPEEIRGG,3.01
12,FQEAMTHLQHKLICERKPEEIRGG,3.06
13,FQEAMTHLQHKLICQRKPEEIRGG,3.31
14,FQEAMTHLQHKRICTRKPEEIRGG,2.71
15,FQEAMTHLQHKFICTRKPEEIRGG,2.38
16,FQEAMTHLQHKGICTRKPEEIRGG,2.72
17,FQEAMTHLQHKPICTRKPEEIRGG,2.8
18,FQEAMTHLQHKSICTRKPEEIRGG,3.4
19,FQEAMTHLQKKLICTRKPEEIRGG,2.94
20,FQEAMTHLQSKLICTRKPEEIRGG,2.5
21,FQEAMTHLQPKLICTRKPEEIRGG,3.16
22,FQEAMTHLQDKLICTRKPEEIRGG,3.14
23,FQEAMTHLQQKLICTRKPEEIRGG,3.05
24,FQEAMTHLQVKLICTRKPEEIRGG,1.92

row,Variant,protein stability index
1,FQEAMTHLQHKLIPTRKPEEIRGG,2.33
2,FQEAMTHLQHKLIQTRKPEEIRGG,2.51
3,FQEAMTHLQHKLIWTRKPEEIRGG,1.68
4,FQEAMTHLQHKLIRTRKPEEIRGG,3.28
5,FQEAMTHLQHKLIETRKPEEIRGG,3.36
6,FQEAMTHLQHKLIITRKPEEIRGG,2.21
7,FQEAMTHLQHKLIFTRKPEEIRGG,2.58
8,FQEAMTHLQHKLIVTRKPEEIRGG,2.96
9,FQEAMTHLQHKLIHTRKPEEIRGG,2.82
10,FQEAMTHLQHKLILTRKPEEIRGG,2.55
11,CQEAMTHLQHKLICTRKPEEIRGG,3.98
12,KQEAMTHLQHKLICTRKPEEIRGG,3.61
13,QQEAMTHLQHKLICTRKPEEIRGG,3.85
14,EQEAMTHLQHKLICTRKPEEIRGG,5.26
15,LQEAMTHLQHKLICTRKPEEIRGG,2.93
16,MQEAMTHLQHKLICTRKPEEIRGG,3.67
17,TQEAMTHLQHKLICTRKPEEIRGG,3.96
18,PQEAMTHLQHKLICTRKPEEIRGG,4.01
19,IQEAMTHLQHKLICTRKPEEIRGG,3.29
20,WQEAMTHLQHKLICTRKPEEIRGG,3.28
21,FREAMTHLQHKLICTRKPEEIRGG,4.08
22,FIEAMTHLQHKLICTRKPEEIRGG,2.01
23,FLEAMTHLQHKLICTRKPEEIRGG,2.32
24,FVEAMTHLQHKLICTRKPEEIRGG,1.56

row,Variant,protein stability index
1,FPEAMTHLQHKLICTRKPEEIRGG,2.53
2,FEEAMTHLQHKLICTRKPEEIRGG,4.25
3,FQLAMTHLQHKLICTRKPEEIRGG,1.9
4,FQAAMTHLQHKLICTRKPEEIRGG,1.82
5,FQIAMTHLQHKLICTRKPEEIRGG,2.22
6,FQMAMTHLQHKLICTRKPEEIRGG,1.62
7,FQGAMTHLQHKLICTRKPEEIRGG,2.98
8,FQFAMTHLQHKLICTRKPEEIRGG,1.48
9,FQQAMTHLQHKLICTRKPEEIRGG,2.52
10,FQTAMTHLQHKLICTRKPEEIRGG,2.54
11,FQNAMTHLQHKLICTRKPEEIRGG,2.55
12,FQEANTHLQHKLICTRKPEEIRGG,3.53
13,FQEAKTHLQHKLICTRKPEEIRGG,2.94
14,FQEARTHLQHKLICTRKPEEIRGG,3.13
15,FQEAFTHLQHKLICTRKPEEIRGG,1.93
16,FQEAMTHLQHKLICTRKPEEIDGG,3.3
17,FQEAMTHLQHKLICTRKPEEIKGG,3.07
18,FQEAMTHLQHKLICTRKPEEICGG,2.41
19,FQEAMTHLQHKLICTRKPEEIEGG,3.29
20,FQEAMTHLQHKLICTRKPEEIPGG,2.51
21,FQEAMTHLQHKLICTRKPEEIIGG,2.41
22,FQEAMTHLQHKLICTRKPEEINGG,2.93
23,FQEAMTHLQHKLICTRKPEEILGG,2.7
24,FQEAMTHLQHKLICTRKPEEIWGG,1.41

row,Variant,protein stability index
1,FQEAMTHLQHKLICTRKPEEIGGG,2.85
2,FQEAMTHLQHKLICTRKPEEIMGG,2.39
3,FQEAMTILQHKLICTRKPEEIRGG,1.59
4,FQEAMTNLQHKLICTRKPEEIRGG,3.19
5,FQEAMTMLQHKLICTRKPEEIRGG,1.11
6,FQEAMTALQHKLICTRKPEEIRGG,2.44
7,FQEAMTSLQHKLICTRKPEEIRGG,3.3
8,FQEAMTYLQHKLICTRKPEEIRGG,3.71
9,FQEAMTWLQHKLICTRKPEEIRGG,1.95
10,FQEAMTCLQHKLICTRKPEEIRGG,2.85
11,FQEAMTGLQHKLICTRKPEEIRGG,2.71
12,FQEAMTHLQHKLICTRKPEELRGG,2.34
13,FQEAMTHLQHKLICTRKPEESRGG,3.74
14,FQEAMTHLQHKLICTRKPEEFRGG,2.62
15,FQEAMTHLQHKLICTRKPEEERGG,2.98
16,FQEAMTHLQHKLICTRKPEERRGG,3.93
17,FQEAMTHLQHKLICTRKPEEKRGG,3.72
18,FQEAMTHLQHKLICTRKPEEWRGG,2.07
19,FQEAMTHLQHKLICTRKPEEGRGG,2.69
20,FQEAMTHLQHKLICTRKPEEHRGG,3.4
